# Laboratory results as given in the RNAGym collection of RNA variant scans (doi:10.7554/elife.80360).
# B1: CPEB3 Ribozyme (parent)
# chain: GGGGGCCACAGCAGAAGCGUUCACGUCGCGGCCCCUGUCAGAUUCUGGUGAAUCUGCGAAUUCUGCUGU
# Variants of: B1
# Assay: self-cleavage, relative activity (ratio to wild type); higher = more cleavage; co-transcriptional
row,Variant,self-cleavage
1,G28U C57G,0.161
2,U26C U36G,0.123
3,C27U G47A,0.459
4,C27U U53G,0.18
5,C27U U53A,0.25
6,C27U C29U,0.189
7,C27U C29G,0.114
8,G28A G31U,0.197
9,G28A G31A,0.153
10,C27U U67G,0.4
11,U26C G37C,0.178
12,G28C U67A,0.182
13,U26C G65U,0.604
14,G28C U69G,0.301
15,G28C U69C,0.276
16,G28U A59C,0.251
17,C27G A51C,0.187
18,G28U C32G,0.217
19,G28U C32U,0.226
20,G28A C54A,0.175
21,U26A G68U,0.901

row,Variant,self-cleavage
1,U26A G68C,0.964
2,C27G U55C,0.137
3,U26A G58U,0.852
4,U26A G58C,0.792
5,U26A G58A,0.627
6,C27A C35G,0.256
7,G28A U53A,0.198
8,G28A U64G,0.205
9,G28A U64C,0.151
10,C27A U38G,0.141
11,G28C G56C,0.192
12,G28C G56A,0.181
13,C27G C33U,0.188
14,C27G C33A,0.29
15,U26C C57U,0.408
16,U26G G65U,0.53
17,G28A A40C,0.15
18,U26A U67A,0.913
19,U26G U36A,0.186
20,C27A C32U,0.543
21,U26G G37C,0.162

row,Variant,self-cleavage
1,G28A U61G,0.214
2,C27U C34G,0.24
3,C27A G30U,0.232
4,U26A G31U,0.27
5,U26A G31C,0.18
6,C27U G37A,0.187
7,G28C G68C,0.147
8,C27A C63U,0.463
9,C27A C63G,0.219
10,C27G C39A,0.166
11,C27G C39G,0.263
12,U26C A60G,0.85
13,G28U C54U,0.178
14,G28U C39U,0.171
15,G28A C45U,0.202
16,C27A U64C,0.343
17,G28A C34U,0.244
18,G28A C34G,0.139
19,C27U C57U,0.204
20,G28A G47A,0.22
21,C27G C66G,0.119

row,Variant,self-cleavage
1,G28A A52U,0.276
2,G28A A52C,0.182
3,C27G C29U,0.121
4,C27G C29A,0.186
5,C27A A52G,0.708
6,C27A A52U,0.547
7,C27G A42U,0.136
8,G28A U62G,0.208
9,C27U G68C,0.385
10,C27U U38G,0.17
11,U26G U62A,0.818
12,U26G U62G,0.617
13,C27A A51C,0.494
14,C27A A51G,0.67
15,C27U G56U,0.197
16,U26G G58C,0.799
17,G28C C63G,0.198
18,G28C C63A,0.186
19,C27A G48U,0.706
20,C27A G48C,0.652
